Laboratory results: US20210162028A1, “Methods for Inducing Intermittent Fasting and Modulating Autophagy” (The Hong Kong Polytechnic University, priority 2019, published 2021)
“Also recorded” adds a separate entry of the source.

Tests used:
Format in all cases: in vivo, mouse
[1] = Insulin tolerance test (ITT); conditions: 17-month old C57BL/6J male mice on chow diet; once a week; at 13 weeks
hepatocyte = experiment: Transmission electron microscopy of liver (hepatocytes); conditions: for TEM of liver: autophagosomes / TEM of liver: lipid droplets: DIO C57BL/6J male mice on HFD, 3 weeks, Day 3
Description: FIG. 47 illustrates the liver examined by transmission electron microscopy at Day 1, Day 3, Day 5 and Day 7 of the 7-day intermittent after N-ABD094-rhArg injection.
The presence of autophagosome in liver after treatment for 3 weeks were examined by TEM (FIGS. 62, 63 and 64).
The presence of autophagosome in liver after treatment for 3 weeks were examined by transmission electron microscopy (FIGS. 71 and 72).

[2] = Liver and kidney damage biomarkers (serum ALT/AST, urine albumin-to-creatinine); conditions: DIO C57BL/6J male mice on HFD; about 600 U once a week, 34 weeks
Description: Other than WAT and BAT, obesity is associated with excessive accumulation of lipids in the liver (hepatic steatosis). Indeed, the liver of vehicle-treated DIO mice was markedly enlarged (FIG. 7A), with a mass about 3 times (4.68 g) that of the lean control (1.73 g) (FIG. 7B).
Other than liver, obesity is also commonly associated with lipid accumulation in the kidney (renal steatosis) and heart (cardiac steatosis), causing lipotoxicity and dysfunction of these organs. Indeed, there was an increase in kidney and heart mass in DIO mice treated with vehicle (FIG. 8A and FIG. 9A).

[3] = Barnes maze test for spatial learning and memory; conditions: DIO C57BL/6J male mice on HFD; weekly, at 43-44 weeks of treatment
Procedure: To determine whether N-ABD094-rhArg [SEQ ID NO: 50], which can induce repetitive intermittent fasting cycles, has beneficial effects on cognitive performance, the Barnes maze test was conducted over ten days to evaluate spatial learning and memory function. The test was performed on a flat circular platform (100 cm in diameter, 1.5 cm thick, elevated 40 cm above the floor) with twenty evenly-spaced holes (7 cm in diameter) distributed around the circumference, and an escape box was placed under one of the holes. Prior to experimentation, each mouse was guided to the specific hole that was positioned over the escape box and left for 180 seconds. Subsequently, each mouse was trained to find the escape hole by placing the mouse in the center of the platform under a small black chamber for three seconds, the chamber was then lifted, and mouse was allowed to find the escape hole within 180 seconds. The platform was brightly illuminated and cooled using a desk fan as adverse stimuli. If the mouse was unable to find the target hole in the allowed time, it was guided to the escape box. Two trials were performed each day for four consecutive days as training period, after which the short- and long-term spatial memory of the mouse was probed on Day 5 and Day 10 respectively, by removing the escape box and allowing them to explore the platform for a full 180 seconds. Each trial was recorded directly over the platform. For each trial on Day 1 to 4, the time required to find the escape hole and exit the platform, and the type of exploratory pattern (random, serial, or direct) in exploring were recorded. For each probe trial on Day 5 and 10, the number of times the mice investigated each of the twenty holes was recorded over 180 seconds, with an instance of investigation defined as the localization of the snout inside a given hole.
Spatial memory loss is a prominent feature in rodent models of type 2 diabetes and obesity [Boitard et al., 2014; Underwood and Thompson, 2016]. To investigate whether arginase treatment could prevent spatial memory loss in mice fed a HFD, DIO C57BL/6J male mice were subjected to assessment of spatial memory by Barnes maze test at 43 weeks after receiving weekly administration of N-ABD094-rhArg (SEQ ID NO: 50) starting from 17-week old.

[4] = Whitening of brown adipose tissue (size, mass, H&E histology); conditions: DIO C57BL/6J male mice on HFD; 600 U once a week, 12 weeks
Description: FIG. 53 illustrates that administration of 600 U N-ABD094-rhArg (SEQ ID NO: 50) once a week to C57BL/6J male mice with pre-existing HFD-induced obesity [HFD (rhArg) group] for 12 weeks could effectively reverse whitening of brown adipose tissue (BAT), with lipids stored as a large single globule (characteristic feature of white adipocytes) changing to storage of lipids in multiple small droplets (characteristic feature of brown adipocytes), which was in line with the findings of induction of lipophagy observed by TEM. […] (B) The mass of iBAT of the 3 groups of mice was in line with the size shown in A. *P<0.05, one-way ANOVA followed by Bonferroni test. Data are expressed as mean±SEM, n=5 for each group.
After prolonged feeding on a HFD, there was a further increase in the size (FIG. 53A) and weight of the interscapular BAT (FIG. 53B) in vehicle-treated DIO mice [HFD (vehicle) group] in comparison to the lean control mice [CD (vehicle) group], which was correlated with the presence of massive amount of enlarged white-like unilobular cells (FIG. 53A). As observed under transmission electron microscopy, brown adipocyte in mice fed with HFD [HFD (vehicle) group] had massive enlarged lipid droplets (FIG. 52A). […] Many autophagosomes were actively forming and engulfing the lipid droplets (FIG. 52B). […]

[5] = Survival of very old mice; conditions: 25-month old C57BL/6J male mice on chow diet; weekly for 30 weeks; vehicle 20%
Description: Specific autophagy upregulation in Caenorhabditis elegans and Drosophila extends lifespan, and drugs that induce autophagy, such as rapamycin, promote longevity in rodents (Hansen et al., Nature Reviews Molecular Cell Biology. 2018; 19:579-593). For C57BL/6J mice, over 24 months of age can be considered “very old” and survivorship drops off markedly (https://www.jax.org/news-and-insights/jax-blog/2017/november/when-are-mice-considered-old). To determine whether N-ABD094-rhArg (SEQ ID NO: 50), which induces systemic upregulation of autophagy, can increase longevity, very old C57BL/6J male mice at 25 months of age (equivalent to seventy in humans) fed an ordinary chow diet were separated into 2 groups. One group was treated once weekly with 600 U N-ABD094-rhArg (SEQ ID NO: 50) [CD Very Old (rhArg) group] for 30 weeks while another group was treated with vehicle [CD Very Old (vehicle) group]. A group of C57BL/6J male mice at 7 months of age (equivalent to early thirties in humans) treated with vehicle [CD Young (vehicle) group] served as the reference of progressive changes from mature adult to late middle age over the 30-week period.

[6] = 300 U/week rhArg and/or 300 mg/kg metformin
[7] = rhArg weekly and/or 0.33 mg RA daily
[8] = HFD-fed male mice, 600 U once a week, 4 weeks

B1: N-ABD094-rhArg: recombinant human arginase fused to albumin binding domain ABD094 (SEQ ID NO: 50); engineered long-acting arginine-depleting enzyme (protein)
chain: MHHHHHHDEAVDANSLAEAKEAANAELDSYGVSDFYKRLIDKAKTVEGVEALKDAILAALPSGSNNNNNNGSGGMSAKSRTIGIIGAPFSKGQPRGGVEEGPTVLRKAGLLEKLKEQECDVKDYGDLPFADIPNDSPFQIVKNPRSVGKASEQLAGKVAEVKKNGRISLVLGGDHSLAIGSISGHARVHPDLGVIWVDAHTDINTPLTTTSGNLHGQPVSFLLKELKGKIPDVPGFSWVTPCISAKDIVYIGLRDVDPGEHYILKTLGIKYFSMTEVDRLGIGKVMEETLSYLLGRKKRPIHLSFDVDGLDPSFTPATGTPVVGGLTYREGLYITEEIYKTGLLSGLDIMEVNPSLGKTPEEVTRTVNTAVAITLACFGLAREGNHKPIDYLNPPK
modifications: N-ABD094-rhArg, Synthesized in the Lab
notes: engineered long-acting arginine-depleting enzyme
[1]
  Insulin sensitivity in ITT: significantly improve insulin sensitivity; also recorded: effectively improve insulin sensitivity
hepatocyte; [6]
  TEM of liver: autophagosomes: autophagosome was rarely seen
  TEM of liver: lipid droplets: significant decrease in lipid droplet size
hepatocyte; 300 U/week rhArg and/or 300 mg/kg metformin, listed as N-ABD-rhArg (SEQ ID NO: 50)
  TEM of liver: autophagosomes: no autophagosome is observed
hepatocyte; [7]
  TEM of liver: autophagosomes: autophagosome was rarely seen
  TEM of liver: lipid droplets: significant decrease in lipid droplet size
hepatocyte; rhArg weekly and/or 0.33 mg RA daily, listed as N-ABD-rhArg (SEQ ID NO: 50)
  TEM of liver: autophagosomes: no autophagosome is observed
hepatocyte; [8]
  TEM of liver, Day 1 of the 7-day cycle: autophagosomes and autolysosomes were found in the hepatocye
  TEM of liver, Day 3 of the 7-day cycle: extensive lipophagy was observed
  TEM of liver, Day 5 of the 7-day cycle: autolysosome and lipophagy became rare
  TEM of liver, Day 7 of the 7-day cycle: no autophagosome and no lipophagy was observed
[2]
  Ratio of albumin-to-creatinine in urine: levels similar to the age-matched lean control mice
  Serum concentrations of ALT and AST: restored to levels comparable to the lean control mice
[3]
  Barnes maze: exploratory pattern (search mode) on Day 1: predominately used a serial-type exploratory pattern; also recorded: significantly improve their search mode
  Barnes maze: latency to exit the platform in training period: could exit the platform significantly earlier than HFD-fed mice treated with vehicle; also recorded: significantly reduce the total latency
  Barnes maze: probe trial Day 5 (short-term memory): explored the holes nearest to the target in increasing frequency with the target hole being the most-explored hole
  Barnes maze: probe trial Day 10 (long-term memory): Such trends were maintained on Day 10
[4]
  White-like unilobular cells in BAT (histology): almost complete remission of white-like unilobular cells
[5]
  Survival rate: 80%
